Where two headings read alike, the source gives them in different places.
How the values were obtained:
[1] = molecular target: T1, Recombinant FcγRIIa (R131) with C-terminus Biotin (human, UniProt P12318, C-terminus Biotin)
T1 chain: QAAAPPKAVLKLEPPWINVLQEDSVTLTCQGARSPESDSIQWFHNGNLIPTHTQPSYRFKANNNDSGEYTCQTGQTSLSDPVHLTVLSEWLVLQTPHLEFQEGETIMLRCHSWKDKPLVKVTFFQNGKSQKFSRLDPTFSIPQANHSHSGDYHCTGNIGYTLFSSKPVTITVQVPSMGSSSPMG

[2] = molecular target: T2, Recombinant FcγRIIa (H131) with C-terminus Biotin (human, UniProt P12318 34-217, C-terminus Biotin)
T2 chain: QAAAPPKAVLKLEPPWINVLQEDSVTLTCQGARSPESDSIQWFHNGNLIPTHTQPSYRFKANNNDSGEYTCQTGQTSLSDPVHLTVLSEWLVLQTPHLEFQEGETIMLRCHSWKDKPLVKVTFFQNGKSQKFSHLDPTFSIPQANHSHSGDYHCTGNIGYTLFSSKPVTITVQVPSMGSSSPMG

[3] = molecular target: T3, Recombinant FcγRI with C-terminus Biotin (human, UniProt P12314 16-292, C-terminus Biotin)
T3 chain: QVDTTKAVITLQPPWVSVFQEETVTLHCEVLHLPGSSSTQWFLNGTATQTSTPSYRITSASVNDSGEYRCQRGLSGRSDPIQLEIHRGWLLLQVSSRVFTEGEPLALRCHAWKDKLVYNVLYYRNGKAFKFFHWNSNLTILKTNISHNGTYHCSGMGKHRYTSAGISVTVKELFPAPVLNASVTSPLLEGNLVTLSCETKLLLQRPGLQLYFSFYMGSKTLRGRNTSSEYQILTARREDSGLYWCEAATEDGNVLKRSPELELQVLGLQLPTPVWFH

[4] = molecular target: T4, Recombinant FcγRIIb with C-terminus Biotin (human, UniProt P31994 43-217, C-terminus Biotin)
T4 chain: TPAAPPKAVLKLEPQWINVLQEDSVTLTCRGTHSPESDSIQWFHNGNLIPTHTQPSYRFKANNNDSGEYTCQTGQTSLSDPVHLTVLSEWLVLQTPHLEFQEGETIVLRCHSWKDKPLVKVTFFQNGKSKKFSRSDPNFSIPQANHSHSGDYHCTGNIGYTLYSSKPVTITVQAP

[5] = molecular target: T5, Recombinant FcγRIIIa (V158) with C-terminus Biotin (human, UniProt P08637, C-terminus Biotin)
[6] = molecular target: Recombinant FcγRIIIa (F158) with C-terminus Biotin (human, UniProt P08637 17-208, C-terminus Biotin)
[7] = molecular target: T3, Recombinant FcγRI with C-terminus Biotin
[8] = molecular target: T5, Recombinant FcγRIIIa (V158) with …; remark: listed apart in the source
[9] = molecular target: T1, Recombinant FcγRIIa (R131) with …
[10] = molecular target: T2, Recombinant FcγRIIa (H131) with …

T5 sequence (P08637 17-208 F176V): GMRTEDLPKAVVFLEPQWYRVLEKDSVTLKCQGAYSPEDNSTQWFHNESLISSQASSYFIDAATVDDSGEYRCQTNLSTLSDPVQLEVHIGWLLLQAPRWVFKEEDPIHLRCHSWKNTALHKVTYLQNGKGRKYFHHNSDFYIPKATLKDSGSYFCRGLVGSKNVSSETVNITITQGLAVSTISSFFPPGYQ
Chain of Recombinant FcγRIIIa (F158) with C-terminus Biotin (P08637 17-208): as the sequence (P08637 17-208 F176V) above, with V160F counted along it

B1: Infliximab (antibody)
chain 1: EVKLEESGGGLVQPGGSMKLSCVASGFIFSNHWMNWVRQSPEKGLEWVAEIRSKSINSATHYAESVKGRFTISRDDSKSAVYLQMTDLRTEDTGVYYCSRNYYGSTYDYWGQGTTLTVSS
chain 2: DILLTQSPAILSVSPGERVSFSCRASQFVGSSIHWYQQRTNGSPRLLIKYASESMSGIPSRFSGSGSGTDFTLSINTVESEDIADYYCQQSHSWPFTFGSGTNLEVK
B1 gave an IC50 [1] of 394 nM, an IC50 [2] of 244 nM and an IC50 [3] of 0.06 nM. It also gave an IC50 [4] of 2900 nM, an IC50 [5] of 15.5 nM and an IC50 [6] of 101 nM.

B2: Pembrolizumab (antibody)
chain 1: QVQLVQSGVEVKKPGASVKVSCKASGYTFTNYYMYWVRQAPGQGLEWMGGINPSNGGTNFNEKFKNRVTLTTDSSTTTAYMELKSLQFDDTAVYYCARRDYRFDMGFDYWGQGTTVTVSS
chain 2: EIVLTQSPATLSLSPGERATLSCRASKGVSTSGYSYLHWYQQKPGQAPRLLIYLASYLESGVPARFSGSGSGTDFTLTISSLEPEDFAVYYCQHSRDLPLTFGGGTKVEIK
B2 was tested, and the IC50 [7] was 0.44 nM and the IC50 [8] was 1960 nM.

B3: Panitumumab (antibody)
chain 1: QVQLQESGPGLVKPSETLSLTCTVSGGSVSSGDYYWTWIRQSPGKGLEWIGHIYYSGNTNYNPSLKSRLTISIDTSKTQFSLKLSSVTAADTAIYYCVRDRVTGAFDIWGQGTMVTVSS
chain 2: DIQMTQSPSSLSASVGDRVTITCQASQDISNYLNWYQQKPGKAPKLLIYDASNLETGVPSRFSGSGSGTDFTFTISSLQPEDIATYFCQHFDHLPLAFGGGTKVEIK
B3 showed an IC50 [9] of 1570 nM and an IC50 [10] of 137 nM.

Reference: publication PMC9287719 (2022)
